Assay results: paper PMC10077475, “DG9-conjugated morpholino rescues phenotype in SMA mice by reaching the CNS via a subcutaneous administration” (JCI Insight, 2023)

Experiment: Toxicology: serum markers, urinary KIM-1, liver and kidney histology
Format: in vivo, mouse
Method: To further elucidate the possibility of long-term toxicity, we collected serum from the Hets and AO-treated mice at PD30–PD35. A toxicological evaluation was performed on the levels of alkaline phosphatase (ALP), alanine transaminase (ALT), aspartate aminotransferase (AST), creatine kinase (CK), creatinine, total bilirubin, total protein, albumin, globulin, and gamma-glutamyl transferase (GGT). […] We also performed a qualitative histological analysis of the liver and kidney and found no signs of observable toxicity (Supplemental Figure 9D). We also analyzed levels of urinary kidney injury marker-1 (KIM-1) following DG9-PMO treatment at both 40 and 80 mg/kg.
Blood was collected from the mice around PD30–PD40 (n = 4–10 per group) during the dissection procedure. The blood was left at RT for 30 minutes and centrifuged at 2,000 rcf. The resulting supernatant (serum) was transferred to a new 1.5 mL tube and stored at –20 °C. The serum samples were analyzed by IDEXX BioAnalytics. The evaluation was performed on a standard set of toxicity markers: glucose, total bilirubin, blood urea nitrogen, CK, creatinine, ALP, ALT, AST, GGT, globulin, albumin, and total protein. Urinary KIM-1 analysis was performed from urine collected from mice at PD30. The collected urine was centrifuged at 2,000 rcf at 4°C. […]

Compound: CC(=O)N[C@@H](Cc1ccc(O)cc1)C(=O)N[C@@H](C)C(=O)N[C@H](CCCNC(=N)N)C(=O)N[C@H](C(=O)N[C@@H](CCCNC(=N)N)C(=O)N[C@@H](CCCNC(=N)N)C(=O)N[C@H](CCCNC(=N)N)C(=O)NCC(=O)N1CCC[C@H]1C(=O)N[C@@H](CCCNC(=N)N)C(=O)NCC(=O)N[C@@H](Cc1ccc(O)cc1)C(=O)N[C@@H](C)C(=O)N[C@H](CCCNC(=N)N)C(=O)N[C@H](C(=O)N[C@@H](CCCNC(=N)N)C(=O)N[C@@H](CCCNC(=N)N)C(=O)N[C@H](CCCNC(=N)N)C(=O)NCC(=O)N1CCC[C@H]1C(=O)N[C@@H](CCCNC(=N)N)C(=O)N[C@H](CCCNC(=N)N)C(=O)N1C[C@@H](COP(=O)(N(C)C)N2C[C@@H](COP(=O)(N(C)C)N3C[C@@H](COP(=O)(N(C)C)N4C[C@@H](COP(=O)(N(C)C)N5C[C@@H](COP(=O)(N(C)C)N6C[C@@H](COP(=O)(N(C)C)N7C[C@@H](COP(=O)(N(C)C)N8C[C@@H](COP(=O)(N(C)C)N9C[C@@H](COP(=O)(N(C)C)N%10C[C@@H](COP(=O)(N(C)C)N%11C[C@@H](COP(=O)(N(C)C)N%12C[C@@H](COP(=O)(N(C)C)N%13C[C@@H](COP(=O)(N(C)C)N%14C[C@@H](COP(=O)(N(C)C)N%15C[C@@H](COP(=O)(N(C)C)N%16C[C@@H](COP(=O)(N(C)C)N%17C[C@@H](COP(=O)(N(C)C)N%18C[C@@H](COP(=O)(N(C)C)N%19CCC(C(N)=O)CC%19)O[C@@H](n%19cc(C)c(=O)[nH]c%19=O)C%18)O[C@@H](n%18ccc(N)nc%18=O)C%17)O[C@@H](n%17cnc%18c(N)ncnc%18%17)C%16)O[C@@H](n%16ccc(N)nc%16=O)C%15)O[C@@H](n%15cc(C)c(=O)[nH]c%15=O)C%14)O[C@@H](n%14cc(C)c(=O)[nH]c%14=O)C%13)O[C@@H](n%13cc(C)c(=O)[nH]c%13=O)C%12)O[C@@H](n%12ccc(N)nc%12=O)C%11)O[C@@H](n%11cnc%12c(N)ncnc%12%11)C%10)O[C@@H](n%10cc(C)c(=O)[nH]c%10=O)C9)O[C@@H](n9cnc%10c(N)ncnc%109)C8)O[C@@H](n8cnc9c(N)ncnc98)C7)O[C@@H](n7cc(C)c(=O)[nH]c7=O)C6)O[C@@H](n6cnc7c(=O)[nH]c(N)nc76)C5)O[C@@H](n5ccc(N)nc5=O)C4)O[C@@H](n4cc(C)c(=O)[nH]c4=O)C3)O[C@@H](n3cnc4c(=O)[nH]c(N)nc43)C2)O[C@@H](n2cnc3c(=O)[nH]c(N)nc32)C1)C(C)C)C(C)C (some centres unmarked) [DG9-PMO]
- urinary kidney injury marker-1 (KIM-1) compared to the Hets (40 and 80 mg/kg, urine at PD30, sandwich ELISA): no apparent increase
- toxicity on the liver and kidney (as high as 80 mg/kg dose): no apparent toxicity
